Experimental data published in PMC5870055, “Structural and Mechanistic Analysis of the Choline Sulfatase from Sinorhizobium melliloti: A Class I Sulfatase Specific for an Alkyl Sulfate Ester” (Journal of Molecular Biology, 2018).
Changes are numbered by the printed parent chain. Names and notes keep the numbering of the source.

Experiments:
[1] = tested on: O=[N+]([O-])c1ccc(OS(=O)(=O)O)cc1; test: purified protein; conditions: 100 mM Tris-HCl pH 7.6, 25 °C
[2] = tested on: C[N+](C)(C)CCOS(=O)(=O)[O-]; test: purified protein; conditions: pH 7.6; 25.0 °C
[3] = target: T1, SmCS (Sinorhizobium meliloti choline sulfatase, BetC) (Sinorhizobium meliloti, UniProt O69787); test: product inhibition kinetics; format: biochemical; conditions: competitive; range over the pH values tested, single values in Fig. S11; 25 °C
T1 sequence (O69787 1-512): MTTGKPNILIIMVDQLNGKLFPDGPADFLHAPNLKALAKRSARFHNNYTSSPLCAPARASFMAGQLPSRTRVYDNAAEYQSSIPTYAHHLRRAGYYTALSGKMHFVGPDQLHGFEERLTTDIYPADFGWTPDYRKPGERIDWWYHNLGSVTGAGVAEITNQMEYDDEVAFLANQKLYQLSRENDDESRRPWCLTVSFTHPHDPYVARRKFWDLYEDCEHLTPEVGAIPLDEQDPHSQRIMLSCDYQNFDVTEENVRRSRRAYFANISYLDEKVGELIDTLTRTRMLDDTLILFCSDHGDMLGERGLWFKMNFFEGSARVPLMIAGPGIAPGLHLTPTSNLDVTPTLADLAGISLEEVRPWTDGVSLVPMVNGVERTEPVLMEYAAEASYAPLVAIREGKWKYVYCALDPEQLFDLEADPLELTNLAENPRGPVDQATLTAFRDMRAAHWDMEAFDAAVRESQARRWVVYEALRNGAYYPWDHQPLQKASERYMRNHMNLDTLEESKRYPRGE
Excerpt: product inhibition kinetics on SmCS (Sinorhizobium meliloti choline sulfatase, BetC) | The reaction product choline can act as a competitive inhibitor, albeit a relatively weak one

purified protein [4] = substrate: C[N+](C)(C)CCOP(=O)([O-])O; test: purified protein; conditions: 100 mM Tris-HCl pH 7.6, 25 °C, no metal added
purified protein [5] = substrate: COP(=O)(O)Oc1ccc([N+](=O)[O-])cc1; test: purified protein; conditions: 100 mM imidazole-HCl pH 6.0, 25 °C
purified protein [6] = substrate: C[N+](C)(C)CCOS(=O)(=O)[O-]; test: purified protein; conditions: 100 mM Tris-HCl pH 7.6, 25 °C
purified protein [7] = substrate: O=[N+]([O-])c1ccc(OS(=O)(=O)O)cc1; test: purified protein
[8] = 100 mM imidazole-HCl pH 6.0, 25 °C
[9] = 100 mM Tris-HCl pH 7.6, 25 °C, made without FGE

## SmCS (Sinorhizobium meliloti choline sulfatase, BetC) (Sinorhizobium meliloti 1021; DEL501-512)
[1]
  Km: (9.0 ± 0.1) × 10^-2 M
  kcat: 0.0159 ± 0.0001 s⁻¹
  kcat/Km: 0.178 ± 0.004 M⁻¹ s⁻¹
[2]
  Km: (1.09 ± 0.01) × 10^-2 M
  kcat: 0.021 ± 0.002 s⁻¹
  kcat/Km: 1.93 ± 0.01 M⁻¹ s⁻¹

## C[N+](C)(C)CCO [choline]
[3]
  KIC: ~ 52–6.3 mM

B1: SmCS (Sinorhizobium meliloti choline sulfatase, BetC) (Sinorhizobium meliloti 1021) (protein)
chain: T1 sequence (O69787 1-512)
Purified protein [4]
  Km: (2.1 ± 0.2) × 10^-3 M
  kcat: 0.0267 ± 0.0001 s⁻¹
  kcat/Km: 13 ± 1 M⁻¹ s⁻¹
Purified protein [5]
  kcat: > 0.004 s⁻¹
Purified protein [6]; no metal added
  Km: (5.0 ± 0.6) × 10^-4 M
  kcat: 2.4 ± 0.2 s⁻¹
  kcat/Km: 4800 ± 500 M⁻¹ s⁻¹
Purified protein [7]; [8]
  Km: (1.9 ± 0.2) × 10^-2 M
  kcat: 0.22 ± 0.01 s⁻¹
  kcat/Km: 12 ± 2 M⁻¹ s⁻¹

B2: SmCS (Sinorhizobium meliloti choline sulfatase, BetC) (Sinorhizobium meliloti 1021; H104A) (protein)
chain: T1 sequence (O69787 1-512) with H104A
Purified protein [6]
  Km: (1.33 ± 0.01) × 10^-2 M
  kcat: 0.0347 ± 0.0001 s⁻¹
  kcat/Km: 2.6 ± 0.02 M⁻¹ s⁻¹

B3: SmCS (Sinorhizobium meliloti choline sulfatase, BetC) (Sinorhizobium meliloti 1021; K309L) (protein)
chain: T1 sequence (O69787 1-512) with K309L
Purified protein [7]; 100 mM Tris-HCl pH 7.6, 25 °C
  Km: (8.9 ± 2.7) × 10^-2 M
  kcat: 1.6e-05 ± 5e-06 s⁻¹
  kcat/Km: 0.000176 ± 1e-06 M⁻¹ s⁻¹

B4: SmCS (Sinorhizobium meliloti choline sulfatase, BetC) (Sinorhizobium meliloti 1021; C54S) (protein)
chain: T1 sequence (O69787 1-512) with C54S
Purified protein [6]; made without FGE
  Km: (9.4 ± 0.1) × 10^-3 M
  kcat: 0.0112 ± 0.0002 s⁻¹
  kcat/Km: 1.19 ± 0.02 M⁻¹ s⁻¹
Purified protein [7]; [9]
  Km: (3.9 ± 0.2) × 10^-2 M
  kcat: 7.3e-05 ± 1e-06 s⁻¹
  kcat/Km: 0.00189 ± 6e-05 M⁻¹ s⁻¹

B5: SmCS (Sinorhizobium meliloti choline sulfatase, BetC) (Sinorhizobium meliloti 1021; E386L) (protein)
chain: T1 sequence (O69787 1-512) with E386L
Purified protein [6]
  kcat: > 0.012 s⁻¹
  kcat/Km: 0.81 ± 0.01 M⁻¹ s⁻¹
Purified protein [7]; 100 mM Tris-HCl pH 7.6, 25 °C
  Km: (5.7 ± 0.4) × 10^-2 M
  kcat: 0.76 ± 0.03 s⁻¹
  kcat/Km: 13 ± 1 M⁻¹ s⁻¹
